These results are taken from US6136558A, “Heregulin variants” (Genentech, Inc., priority 1998, dated 2000).

Numbering of substitutions follows the chain as printed. Numbers in names are those of the source. Ends that are not written are not given here. Where only a bound is given, the exact number is not on record here.

In experiment [1] the target is ErbB-3 receptor-Ig fusion (human) (UniProt P21860). Nature of the experiment: phage ELISA, soluble ErbB-3-Ig as competitor.
Experiment [2] concerns the target ErbB-4 receptor-Ig fusion (human) (UniProt Q15303). As to the kind of experiment: phage ELISA, soluble ErbB-4-Ig as competitor. Background: An ELISA detects its analyte on a solid surface through an enzyme-linked reagent.
Experiment [3] has the same target. As to the kind of experiment: phage ELISA, ratio to wild-type HRG-β1 177-244 on phage; clone selected on ErbB-4-Ig with ErbB-3-Ig counter-selection.
The target in experiment [4] is ErbB-3 receptor-Ig fusion (human) (UniProt P21860). Nature of the experiment: phage ELISA, ratio to wild-type HRG-β1 177-244 on phage.
For experiment [5], the target named is ErbB-2/3 receptor-Ig fusion (ErbB-2/3-Ig). Nature of the experiment: Phage ELISA, competition with soluble ErbB-2/3-Ig. The note with it: EGF-like domain displayed monovalently on phage as pIII fusion; soluble ErbB-2/3-Ig competing half of the phage off the plate; average of duplicate experiments. It is filed as binding. From the text:
To produce phage displaying the domains, mutagenesis reaction mixtures were electrotransformed into XL1-Blue™ cells (Stratagene, Inc., La Jolla, Calif.), according to the manufacturer's protocol. The transformed cells were then infected with 10^11 plaque-forming units (pfu) M13K07 helper phage (Promega Corp., Madison, Wis.). […] The phage were resuspended in phosphate-buffered saline (PBS: 0.01 M sodium phosphate, 0.1 M NaCl, pH 7.5).
Microtiter plates (Nunc Maxisorp™ 96-well plates, Inter Med, Denmark) for phage ELISA were prepared as follows. The wells were precoated overnight with 0.5 μg of rabbit anti-human IgG (Fc gamma fragment-specific) antibodies (Jackson Immunoresearch, West Grove, Pa.) in 100 μL 50 mM NaCO3 (pH 9.6). The wells were blocked for 30 minutes (min) with 200 μL PBS containing 0.1% bovine serum albumin (BSA) and rinsed with wash buffer (PBS containing 0.05% Tween 20™). The wells were then coated with 0.1 μg ErbB-2/3-Ig in binding buffer (PBS, 0.1% BSA, 0.05% Tween 20™) for 1 h, and washed again.
Following incubation for 2 h at room temperature, plates were washed extensively and treated with a 1:900 dilution of anti-M13 horseradish peroxidase conjugate (Pharmacia, Piscataway, N.J.) for 20 min. The amount of phage binding was determined by assaying horseradish peroxidase activity using o-phenylenediamine dihydrochloride) substrate solution (Sigma Chemical Company, St. Louis, Mo.).

Experiment [6] deals with ErbB-2/3 receptor-Ig fusion (human) (UniProt P04626). Nature of the experiment: phage ELISA, soluble ErbB-2/3-Ig as competitor.
For experiment [7], the target named is ErbB-3 receptor-Ig fusion (human) (UniProt P21860). As to the kind of experiment: displacement of 125I-HRG-β1 177-244 from ErbB-3-Ig. (In general: Loss of bound radioactivity is the signal in a displacement assay; it reports binding, not function.)
The target in experiment [8] is ErbB-4 receptor-Ig fusion (human) (UniProt Q15303). Nature of the experiment: displacement of 125I-HRG-β1 177-244 from ErbB-4-Ig.

HRG-β1 177-244 R220A on phage (ligand): the EC50 in experiment [1] and in experiment [2] was above 1000 nM each time.

Regarding HRG-β1 177-244 R207A on phage (ligand), the figures for the EC50 in experiment [1] and in experiment [2] were above 1000 nM and 30 nM, respectively.

Turning to HRG-β1 177-244 K200A on phage (ligand), the 50% effective concentration (EC50) (in general, the concentration that produces a half-maximal response) stood at 20 nM in experiment [1] and 25 nM in experiment [2].

Regarding HRG-β1 177-244 F216A on phage (ligand), the EC50 was 500 nM in experiment [1] and above 1000 nM in experiment [2].

For the molecule HRG-β1 177-244 L179A on phage (ligand), the results for the concentration for a half-maximal effect (EC50) in experiment [1] and in experiment [2] were 1000 nM and 56 nM, respectively.

Take HRG-β1 177-244 S177A on phage (ligand): the EC50 came out at 67 nM in experiment [1] and 83 nM in experiment [2].

Take “HRG-β1 177-244 H178D L179V on phage (ligand)”: the EC50 Mut/Wt came to 2 in experiment [3] and 2.2 in experiment [4].

As to “HRG-β1 177-244 H178E L179V on phage (ligand)”, the EC50 Mut/Wt in experiment [3] turned out to be 1.7; in experiment [4], 0.8.

Take HRG-β1 177-244 H178L on phage (ligand): the EC50 Mut/Wt in experiment [3] was determined as 1.2; in experiment [4], 1.4.

Take HRG-β1 177-244 H178A on phage (ligand): the figures for the concentration giving a half-maximal response (EC50) in experiment [1] and in experiment [2] were above 1000 nM and 32 nM, respectively.

For the molecule HRG-β1 177-244 R207P on phage (ligand), the values for the EC50 Mut/Wt in experiment [3] and in experiment [4] were 1.3 and 6.1, respectively.

As for “HRG-β1 177-244 H178L with Met in place of 228-231, on phage (ligand)”, the EC50 Mut/Wt was 1.7 in experiment [3] and 6.4 in experiment [4].

Take “HRG-β1 177-244 H178T L179M on phage (ligand)”: the values for the EC50 Mut/Wt in experiment [3] and in experiment [4] were 1.6 and 1.4, respectively.

Turning to HRG-β1 177-244 T217A on phage (ligand), the EC50 in experiment [1] was above 1000 nM; in experiment [2], 14.2 nM.

As to HRG-β1 177-244 K211A on phage (ligand), the half-maximal effective concentration (EC50) in experiment [1] was above 1000 nM; in experiment [2] it was 59 nM.

Consider HRG-β1 177-244 F189A on phage (ligand), for which the EC50 worked out at 892 nM in experiment [1] and 106 nM in experiment [2].

On to HRG-β1 177-244 G218A on phage (ligand), for which the EC50 in experiment [1] and in experiment [2] was above 1000 nM throughout.

Molecule “HRG6: HRG-β1 177-227 fused to pIII 247 (SHLVKCAEKEKTFCVNGGECFMVKDLSNPSRYLCKCPNEFTGDRCQNYVMA; cysteine pairing not given here; also: fused to pIII 247)” displayed an EC50 in experiment [5] of 40 nM.

“HRG7: HRG-β1 177-228 fused to pIII 247 (SHLVKCAEKEKTFCVNGGECFMVKDLSNPSRYLCKCPNEFTGDRCQNYVMAS; cysteine pairing not given here; also: fused to pIII 247)”: the EC50 in experiment [5] worked out at 42 nM.

Regarding HRG-β1 177-244 P205A on phage (ligand), the concentration for a half-maximal effect (EC50) in experiment [1] was determined as 22 nM; in experiment [2] it was 8 nM.

Take HRG-β1 177-244 G194A on phage (ligand): the 50% effective concentration (EC50) came to 500 nM in experiment [1] and 65 nM in experiment [2].

Consider HRG-β1 177-244 F229A on phage (ligand), for which the 50% effective concentration (EC50) in experiment [1] is 6 nM; in experiment [2] it was above 1000 nM.

Regarding HRG-β1 177-244 Y224A on phage (ligand), the EC50 came out at 865 nM in experiment [1] and 51 nM in experiment [2].

As to HRG-β1 177-244 E195A on phage (ligand), the results for the EC50 in experiment [1] and in experiment [2] were above 1000 nM and 24 nM, respectively.

HRG-β1 177-244 N192A on phage (ligand): the figures for the EC50 in experiment [1] and in experiment [2] were above 1000 nM and 188 nM, respectively.

In the case of HRG-β1 177-244 E215A on phage (ligand), the concentration for a half-maximal effect (EC50) in experiment [1] is 51 nM; in experiment [2] it was 32 nM.

Turning to HRG-β1 177-244 G193A on phage (ligand), the EC50 was above 1000 nM in experiment [1] and 23 nM in experiment [2].

B1: HRG6 (ligand)
chain: SHLVKCAEKEKTFCVNGGECFMVKDLSNPSRYLCKCPNEFTGDRCQNYVMA
In experiment [6], B1 yielded an EC50 of 40 nM.

B2: Trx-HRG-β1 146-244 G194A fusion (ligand)
chain: DDDDKAYVSSESPIRISVSTEGANTSSSTSTSTTGTSHLVKCAEKEKTFCVNGAECFMVKDLSNPSRYLCKCPNEFTGDRCQNYVMASFYKHLGIEFMEAEELY
As for B2, the results for the half-maximal effective concentration (EC50) in experiment [7] and in experiment [8] were 1210 nM and 275 nM, respectively.

B3: Trx-HRG-β1 146-244 Y224A fusion (ligand)
chain: B2 chain with A54G, Y84A
On to B3, for which the EC50 amounted to 339 nM in experiment [7] and 24.5 nM in experiment [8].

B4: Trx-HRG-β1 146-244 R207A fusion (ligand)
chain: B2 chain with A54G, R67A
For B4, the concentration giving a half-maximal response (EC50) in experiment [7] was found to be 245 nM; in experiment [8] it was 24.3 nM.

B5: Trx-HRG-β1 146-244 E195A fusion (ligand)
chain: B2 chain with A54G, E55A
For the molecule B5, the concentration giving a half-maximal response (EC50) is 42 nM in experiment [7] and 13.2 nM in experiment [8].

B6: Trx-HRG-β1 146-244 P205A fusion (ligand)
chain: B2 chain with A54G, P65A
In the case of B6, the values for the EC50 in experiment [7] and in experiment [8] were 39.5 nM and 34.2 nM, respectively.

B7: Trx-HRG-β1 146-244 T217A fusion (ligand)
chain: B2 chain with A54G, T77A
For B7, the results for the 50% effective concentration (EC50) in experiment [7] and in experiment [8] were 145 nM and 32.7 nM, respectively.

B8: Trx-HRG-β1 146-244 K211A fusion (ligand)
chain: B2 chain with A54G, K71A
B8: the EC50 turned out to be 248 nM in experiment [7] and 124 nM in experiment [8].

B9: Trx-HRG-β1 146-244 E215A fusion (ligand)
chain: B2 chain with A54G, E75A
As for B9, the EC50 was found to be 156 nM in experiment [7] and 104 nM in experiment [8].

B10: Trx-HRG-β1 146-244 F229A fusion (ligand)
chain: B2 chain with A54G, F89A
Regarding B10, the figures for the concentration for a half-maximal effect (EC50) in experiment [7] and in experiment [8] were 177 nM and 89.9 nM, respectively.

B11: Trx-HRG-β1 146-244 K200A fusion (ligand)
chain: B2 chain with A54G, K60A
Turning to B11, the results for the EC50 in experiment [7] and in experiment [8] were 45.4 nM and 16.9 nM, respectively.

B12: Trx-HRG-β1 146-244 F216A fusion (ligand)
chain: B2 chain with A54G, F76A
As to B12, the EC50 in experiment [7] was determined as 2550 nM; in experiment [8], 173 nM.

B13: Trx-HRG-β1 146-244 G218A fusion (ligand)
chain: B2 chain with A54G, G78A
Turning to B13, the EC50 was 668 nM in experiment [7] and 608 nM in experiment [8].

B14: HRG11 (ligand)
chain: SHLVKCAEKEKTFCVNGGECFMVKDLSNPSRYLCKCPNEFTGDRCQNYVMASFYGGGSGGG
In experiment [6], B14 displayed an EC50 of 19 nM.

B15: HRG11: HRG-β1 177-230 attached to pIII 247 through GGGSGGG linkage (protein)
chain: B14 chain
modifications: also: attached to pIII 247 through GGGSGGG linkage
notes: HRG-β1 177-230 attached to pIII 247 through GGGSGGG linkage
Consider B15, for which the concentration for a half-maximal effect (EC50) in experiment [5] is 19 nM.

B16: HRG5 (ligand)
chain: YVSSESPIRISVSTEGANTSSSTSTSTTGTSHLVKCAEKEKTFCVNGGECFMVKDLSNPSRYLCKCPNEFTGDRCQNYVMASFYKHLGIEFMEAEELY
For B16, the EC50 in experiment [5] and in experiment [6] was 4.7 nM in each case.

B17: HRG4 (ligand)
chain: YVSSESPIRISVSTEGANTSSSTSTSTTGTSHLVKCAEKEKTFCVNGGECFMVKDLSNPSRYLCKCPNEFTGDRCQNYVMA
Take B17: the concentration giving a half-maximal response (EC50) in experiment [5] and in experiment [6] was 38 nM each time.

B18: HRG7 (ligand)
chain: SHLVKCAEKEKTFCVNGGECFMVKDLSNPSRYLCKCPNEFTGDRCQNYVMAS
For the molecule B18, in experiment [6], the concentration for a half-maximal effect (EC50) turned out to be 42 nM.
